Patent publication US20040002442A1 (Bayer, published 2004)
Where a chain is given by its changes, count along the chain named. Ends that are not written are not given here. * marks the point of attachment. Palmitoyl = CCCCCCCCCCCCCCCC(=O)*

T1: GLP-1 receptor present in the plasma membranes isolated from RINm5F cells (UniProt P32301 22-463, limits assumed)
T1 sequence (looked up): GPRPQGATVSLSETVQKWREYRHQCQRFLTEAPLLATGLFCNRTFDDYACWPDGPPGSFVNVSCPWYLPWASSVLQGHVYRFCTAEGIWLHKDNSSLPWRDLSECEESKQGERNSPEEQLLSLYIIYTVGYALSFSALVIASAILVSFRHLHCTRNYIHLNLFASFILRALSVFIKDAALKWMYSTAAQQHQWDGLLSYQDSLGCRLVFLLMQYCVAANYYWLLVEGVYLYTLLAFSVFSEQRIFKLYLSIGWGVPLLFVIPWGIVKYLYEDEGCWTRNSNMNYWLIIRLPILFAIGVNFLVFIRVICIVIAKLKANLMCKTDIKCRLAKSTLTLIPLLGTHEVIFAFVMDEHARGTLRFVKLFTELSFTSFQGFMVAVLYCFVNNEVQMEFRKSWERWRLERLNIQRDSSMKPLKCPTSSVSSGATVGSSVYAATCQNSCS

B1: G51 (peptide)
peptide: HSQGTFTSDYAKYLDARRAKEFIAWLVKGRG
B2: G58 (peptide)
peptide: B1 peptide with R17K, R18K
B3: G59 (peptide)
peptide: B1 peptide with K12R, R17K, R18K
B4: G60 (peptide)
peptide: B1 peptide with R17A, R18K
B5: G61 (peptide)
peptide: B1 peptide with K12R, R17A, R18K
B6: G71 (peptide)
peptide: B1 peptide with K20C
B7: G74 (peptide)
peptide: B1 peptide with K28C
B8: G75 (peptide)
peptide: B1 peptide with G29C
B9: G76 (peptide)
peptide: B1 peptide with R30C
B10: G77 (peptide)
peptide: B1 peptide with G31C
B11: G82 (peptide)
peptide: B1 peptide with K12R, K28R
B12: G83 (peptide)
peptide: HSQGTFTSDYARYLDARRAREFIKWLVRGRG
B13: G84 (peptide)
peptide: B1 peptide with K12R, K20R
B14: G185 (peptide)
peptide: B12 peptide with G31C
B15: G27 (peptide)
peptide: HSQGTFTSDYAKYLDARRAKEFIAWLVKGR-NH2
B16: G88 (peptide)
peptide: HSQGTFTSDYAKYLDARRAKEFIAWLVKGRK(Palmitoyl)
B17: G90 (peptide)
peptide: HSQGTFTSDYARYLDARRAREFIK(Palmitoyl)WLVRGRG
B18: G183 (peptide)
peptide: HSQGTFTSDYARYLDARRAK(Palmitoyl)EFIKWLVRGRG
modifications: not fully specified; printed as HSQGTFTSDYARYLDARRAK(FA)EFIKWLVRGRG
B19: G277 (peptide)
peptide: HSQGTFTSDYAKYLDARRAKEFIAWLVKGRC(PEG22kD)
B20: G2185 (peptide)
peptide: HSQGTFTSDYARYLDARRAREFIKWLVRGRC(PEG22kD)
B21: G4185 (peptide)
peptide: HSQGTFTSDYARYLDARRAREFIKWLVRGRC(PEG43kD)
B22: G1 (peptide)
peptide: HSQGTFTSDYSKYLDSRRAQDFVQWLVKGR-NH2
B23: G182 (peptide)
peptide: HSQGTFTSDYARYLDARRAREFIKWLVRGRGK(Palmitoyl)
B24: G5 (peptide)
peptide: HSQGTFTSDYSKYLEGQAAKEFIAWLVKGR-NH2

target: T2, glucagon receptor present in the plasma membranes isolated from rat liver (rat, UniProt P30082 27-485); experiment: cell-based or functional assay
T2 sequence (P30082 27-485): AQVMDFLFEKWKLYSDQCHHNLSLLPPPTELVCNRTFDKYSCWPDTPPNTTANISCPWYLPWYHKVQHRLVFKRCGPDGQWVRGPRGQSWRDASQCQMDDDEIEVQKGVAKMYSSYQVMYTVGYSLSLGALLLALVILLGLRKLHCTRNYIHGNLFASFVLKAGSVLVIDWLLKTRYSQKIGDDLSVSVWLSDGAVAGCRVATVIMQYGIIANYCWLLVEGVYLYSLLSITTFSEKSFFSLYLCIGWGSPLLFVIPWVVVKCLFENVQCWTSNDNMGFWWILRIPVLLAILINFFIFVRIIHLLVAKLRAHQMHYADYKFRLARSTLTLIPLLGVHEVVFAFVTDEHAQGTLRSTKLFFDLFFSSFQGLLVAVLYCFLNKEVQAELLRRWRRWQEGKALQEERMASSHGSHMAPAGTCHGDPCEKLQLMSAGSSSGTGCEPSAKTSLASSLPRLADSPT

Row | Binder | % Inhib glucagon stimulated cAMP increase (10 uM peptide, rat hepatocytes) [%]
1 | B1 | 35.2
2 | B2 | 32.6
3 | B3 | 41.1
4 | B4 | 21.8
5 | B5 | 45.2
6 | B6 | 11.3
7 | B7 | 23.7
8 | B8 | 17.1
9 | B9 | 23
10 | B10 | 18.6
11 | B11 | 30.2
12 | B12 | 24.7
13 | B13 | 25.2
14 | B14 | 32
15 | B15 | 31

target: T1, GLP-1 receptor present in the plasma …; experiment: cell-based or functional assay

Row | Binder | % GLP1 max, cAMP SPA in RINm5F cells [%] | Relative Potency (%), cAMP SPA in RINm5F cells [%]
16 | B1 | 91.2 | 58.1
17 | B2 | 99 | 76.1
18 | B3 | 102 | 22.7
19 | B4 | 95.7 | 22.3
20 | B5 | 96 | 12.1
21 | B6 | 93.3 | 4.3
22 | B7 | 88.7 | 8.4
23 | B8 | 86.1 | 6.6
24 | B9 | 85 | 7.7
25 | B10 | 92.1 | 9.5
26 | B11 | 97.1 | 29.9
27 | B12 | 89.4 | 29.9
28 | B13 | 114 | 61.8
29 | B16 | 118 | 2.3
30 | B17 | 83.5 | 0.8
31 | B18 | 90.5 | 0.6
32 | B14 | 104 | 13
33 | B19 | 93.7 | 1.8
34 | B20 | 113 | 6.2
35 | B21 | 98.3 | 0.7
36 | B15 | 98.1 | 13.4
37 | B22 | 112 | 6.9
38 | B23 | 104 | 1.4
39 | B24 | 109 | 69.9

target: T1, GLP-1 receptor present in the plasma …; experiment: 125I-GLP-1 displacement, RINm5F plasma membranes
Experimental: (§1) Competitive binding of some polypeptides of the invention to RINm5F cell plasma membranes was measured as follows. Ninety-six-well GF/C filtration plates (Millipore, Bedford, Ma.) were blocked with 0.3% PEI for at least one hour and washed twice with binding buffer consisting of 20 mM Tris, 2 mM EDTA, pH 7.5, 1 mg/ml BSA, and 1 mg/ml bacitracin. […] The plates were dried, scintillant was added to each well, and cpm per well determined using a Wallac Microbeta counter.

Row | Binder | IC50 [nM]
40 | B1 | 8.2
41 | B2 | 6.9
42 | B3 | 2.1
43 | B4 | 13.8
44 | B5 | 10.6
45 | B6 | 5.8
46 | B7 | 4.4
47 | B8 | 7.7
48 | B9 | 10.2
49 | B10 | 8.9
50 | B11 | 8.1
51 | B12 | 3.2
52 | B13 | 1.4
53 | B16 | 109
54 | B17 | 25.4
55 | B18 | 159
56 | B14 | 4.5
57 | B20 | 56.1
58 | B21 | 248
59 | B15 | 2.2
60 | B22 | 6
61 | B23 | 12.6
62 | B24 | 0.5

target: T2, glucagon receptor present in the plasma …; experiment: 125I-glucagon displacement, rat liver plasma membranes
Experimental: as §1, with “rat liver” for “RINm5F cell”, “0.1%” for “0.3%”

Row | Binder | IC50 [nM]
63 | B1 | 154
64 | B2 | 164
65 | B3 | 97.5
66 | B4 | 682
67 | B5 | 232
68 | B6 | 25.6
69 | B7 | 21.7
70 | B8 | 54
71 | B9 | 59.1
72 | B10 | 61.1
73 | B11 | 33.6
74 | B12 | 28.6
75 | B13 | 11.7
76 | B16 | 350
77 | B17 | 726
78 | B18 | 663
79 | B14 | 48
80 | B19 | 65.5
81 | B20 | 347
82 | B21 | 547
83 | B15 | 69.3
84 | B22 | 6.6
85 | B23 | 220
86 | B24 | 243
